± gives the half width of the 95% confidence interval.
Experiments:
[1] = folding stability dG unfold from trypsin proteolysis; higher = more stable
Summary of the method: (§1)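 Unfolding free energy was derived, per protease or combined, against a sequence-predicted unfolded-state K50 and a shared folded-state K50, starting from K50 inferred by Bayesian fitting of sequencing counts. Digestion with trypsin and chymotrypsin was carried out on designed mini-proteins under 80 residues without cysteine in a PA-tagged cDNA display construct. Only designs with AlphaFold2 dimer inter-PAE above 15 were kept.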

[2] = folding stability dG unfold from chymotrypsin proteolysis; higher = more stable
Summary of the method: as §1

[3] = folding stability dG unfold (combined trypsin and chymotrypsin); higher = more stable
Summary of the method: as §1

| Sequence | folding stability dG unfold [1] | folding stability dG unfold [2] | folding stability dG unfold [3] |
| --- | --- | --- | --- |
| SAGGSAGGSAGGNIEVLPIPDGYWVIKIPDGRIMVFNPGRGEFEPIPIENVTIEPVRPGDSAGGSAGGSAGG [r7_656_TrROS] | 0.4 ± 0.021 kcal/mol | 0.929 ± 0.055 kcal/mol | 0.783 ± 0.076 kcal/mol |
| SAGGSAGGSAMIEISSYTLPNGELVVEVTIPDPNSDKTTTLRGKYSSLEEAREEAEKLYLQSAGGSAGGSAG [r3_174_JUSTAS] | 1.52 ± 0.051 kcal/mol | 1.84 ± 0.12 kcal/mol | 1.69 ± 0.12 kcal/mol |
| SAGGSAGGSAGGKKIEIEFTVKILREPEPGELVPYEVKGKLEINIDPDGNLKIELKFEPGSAGGSAGGSAGG [r11_607_TrMRF] | 2.81 ± 0.11 kcal/mol | 3.26 ± 0.073 kcal/mol | 3.06 ± 0.15 kcal/mol |
| SAKLAKELAEELAKEILPKFPNIKAVKVEVEPLGDYAIATIIWEKENGKPIISKAIIEKNKKILKVDISSAG [r14_719_TrMRF] | 1.02 ± 0.047 kcal/mol | 1.26 ± 0.043 kcal/mol | 1.19 ± 0.19 kcal/mol |
| SAGGSVTLPDATVVKVPPSQDWQEHADRLAAEIREAGADYEVSVESTPDGSVLITITVPGRTWTMVTSAGGS [r16_771_JUSTAS] | 1.15 ± 0.032 kcal/mol | 0.49 ± 0.077 kcal/mol | 0.936 ± 0.03 kcal/mol |
| SAGGSPNFRIHIEGPEGKTLQYPVDPGFNKPDIQDWLQELGNIEIDQHPNDGWITIRIPKDALDQFSAGGSA [r2_164_TrROS] | 0.226 ± 0.12 kcal/mol | 0.0882 ± 0.21 kcal/mol | 0.161 ± 0.27 kcal/mol |
| SETITLEIELPDGSKLTIEIPVEKIPGVDEYVVTVKITEYLPNGKPRSREFTFLAKSPEEAVEIALLAAGSA [r9_337_TrMRF] | 4.7 ± 0.24 kcal/mol | 5.57 ± 0.16 kcal/mol | 5.57 ± 0.21 kcal/mol |
| SAGGKEVKIEIEEKDGKLVIKITVKTEEELKEEIKKLLEEEFGLEVEEVKVEKNKNGEVTIYVVIKKKSAGG [r13_158_TrROS_Hall] | 1.45 ± 0.17 kcal/mol | 2.64 ± 0.2 kcal/mol | 2.51 ± 0.44 kcal/mol |
| SAGGSAGGDNWYHITIFRMKIKEVEPRKDPDGEKEPQFNFKIKEVVTIPIPPNDPEKLKDALGASAGGSAGG [r6_738_TrROS] | 0.745 ± 0.079 kcal/mol | 1.84 ± 0.13 kcal/mol | 1.37 ± 0.12 kcal/mol |
| SAGGSAGGMVTITEVSYDPKIGKTFTLVTVKDPEGKETLVEVPLEEIEKLIEEVPEGRPVEIAPSAGGSAGG [r6_113_JUSTAS] | -0.0621 ± 0.054 kcal/mol | -0.983 ± 0.64 kcal/mol | -0.199 ± 0.19 kcal/mol |
| SAGGSAGGSAGVVLKEPKGGVPKTITEDPNHPGLYTTGSPDGTISTRPLEIKPEEEPVLLSAGGSAGGSAGG [r17_85_JUSTAS] | -1.01 ± 0.49 kcal/mol | -0.542 ± 0.4 kcal/mol | -0.739 ± 0.55 kcal/mol |
| SAGGMKKVKALVVANPFDPNKYKVFVKAEEEEKVFEFDPNNPEKIIEELEKLLPEDYKLDEIVFESGASAGG [r13_519_TrMRF] | 0.752 ± 0.032 kcal/mol | 2.12 ± 0.058 kcal/mol | 1.74 ± 0.1 kcal/mol |
| SMYTADFILPDEVLKTVPLEGKSVEEALEKVKEIVKQLPPNTPLLVKISYTEVDPKTGTTRTGTITVPLKSA [r9_245_JUSTAS] | 2.06 ± 0.065 kcal/mol | 2.39 ± 0.044 kcal/mol | 2.2 ± 0.19 kcal/mol |
| SAGGMYLYKINIKNENEEFFLPILAPEEDEEKVEELAKEISIKLGVKPENIKIEKIEKILGPNGIPVSAGGS [r16_650_TrMRF] | 1.74 ± 0.058 kcal/mol | 2.08 ± 0.037 kcal/mol | 1.99 ± 0.1 kcal/mol |
| SAGGSAGGSAGAEELAKKLKELGFEVKVEKNEDGSLTLTVKFKPKPKPKKVVTKDGKEVKSAGGSAGGSAGG [r17_503_TrROS_Hall] | 0.579 ± 0.076 kcal/mol | 1.9 ± 0.11 kcal/mol | 1.61 ± 0.26 kcal/mol |
| SAGGSAGGSAGIRLDSLEEALKYIRKNFPPGRTVEIRVYDGDKPVEITVQVDENGDIKIVSAGGSAGGSAGG [r17_69_TrROS] | 2.91 ± 0.15 kcal/mol | 3.227 ± 0.02 kcal/mol | 3.19 ± 0.092 kcal/mol |
| SAGGSAGGSAGGGMPVEMKITLYDPDGTKIGEYTLKVKSEEELKKAVEEKGYNYEVDKESAGGSAGGSAGGS [r10_958_JUSTAS] | 0.198 ± 0.067 kcal/mol | 0.17 ± 0.16 kcal/mol | 0.29 ± 0.1 kcal/mol |
| SAGGSAGGSAGGIWITMRPDNPDEFIDALRKKGKIRIVEVEPKNGNVIMRVTLDGQPLTSAGGSAGGSAGGS [r10_695_TrROS] | 0.0442 ± 0.14 kcal/mol | 0.53 ± 0.11 kcal/mol | 0.368 ± 0.088 kcal/mol |
| SAATLPPGTKVLTLTVTVRVPPGVSVEDLAAALAAELRRRLGPGAKITVTVTYDPETDTLTVTVTVVLPPSA [r9_657_TrROS_Hall] | 3.53 ± 0.091 kcal/mol | 4.66 ± 0.078 kcal/mol | 4.38 ± 0.081 kcal/mol |
| SAGGSAGGSAMVTIAFPDGTVVEIPASLSEEEVEAEAERLAKERAAGVRPVDVTVESIEPPGSAGGSAGGSA [r18_213_JUSTAS] | 0.356 ± 0.035 kcal/mol | 1.43 ± 0.062 kcal/mol | 1.07 ± 0.069 kcal/mol |
| SAGGMIRITTEDGEELSEEELAELEEAIRKGDLDEAVKKIEELLRERFGKEIKIKVEVFFPPPPPPESAGGS [r8_48_TrROS_Hall] | 3.79 ± 0.26 kcal/mol | 3.26 ± 0.092 kcal/mol | 3.59 ± 0.15 kcal/mol |

| Sequence | folding stability dG unfold [1] | folding stability dG unfold [2] | folding stability dG unfold [3] |
| --- | --- | --- | --- |
| SAGGSAGGSAGGIEKFLEKHPELKIKKEIKIKIPYKTKDGKEFEVEYKIFYLTSEDEEDSAGGSAGGSAGGS [r10_0_TrMRF] | 1.39 ± 0.05 kcal/mol | 2.74 ± 0.057 kcal/mol | 2.36 ± 0.07 kcal/mol |
| SAGGSAGGSAEKTLTVVIKVKPNKTPEEIAKEIKKKLNLPNVEIVSIEYDKETNYITIKVKVSAGGSAGGSA [r18_481_TrROS_Hall] | 3.6 ± 0.086 kcal/mol | 3.39 ± 0.056 kcal/mol | 3.47 ± 0.12 kcal/mol |
| SAGGPVIEVEKEYIPETGLVKVKVRDPSSDRELEIIAPSDLVDKIEKALENAPGTNSEAAVREALRDSAGGS [r8_484_TrMRF] | -0.935 ± 0.42 kcal/mol | 0.921 ± 0.032 kcal/mol | 0.402 ± 0.15 kcal/mol |
| SAIEITVMSDSPEEAKEKAKEFANWLQNRMRRDGLPDMPIPIKIEVIPVPPPKPKPKRDPDDGEWKPDPSAG [r14_475_TrROS] | -0.415 ± 0.57 kcal/mol | 0.731 ± 0.34 kcal/mol | 0.487 ± 0.23 kcal/mol |
| SAGGSAGGSIRRDENGNFRVRIKVRFPGNGRKRTIEIPFDNATLEEIRKQAIDHGIRPIEIIPSAGGSAGGS [r12_792_TrROS] | 0.993 ± 0.052 kcal/mol | 1.35 ± 0.053 kcal/mol | 1.24 ± 0.047 kcal/mol |
| SAGGSAGGSKEIVIKVNVSEEDLKEKAEELLKKLEELLPPGAKIKKIEIEYDEETGELVIKIESAGGSAGGS [r12_308_TrROS_Hall] | 2.49 ± 0.22 kcal/mol | 1.94 ± 0.15 kcal/mol | 2.26 ± 0.18 kcal/mol |
| SAGGSADRVTVTVTVRVRDPATGEWREVTETVTVPAPLTLEITLPPGWRLRLTLEDGELRLEVEPESAGGSA [r2_109_TrROS_Hall] | 3.1 ± 0.096 kcal/mol | 4.26 ± 0.051 kcal/mol | 3.93 ± 0.063 kcal/mol |
| SAGGSAGGSAGSTVTLTVDPDTNVATLTAIIGGKPVTATLTFIPNTGKARLPDGTWIDISSAGGSAGGSAGG [r11_395_TrMRF] | 1.43 ± 0.034 kcal/mol | 1.03 ± 0.051 kcal/mol | 1.28 ± 0.069 kcal/mol |
| SAGGSAEIEIVIVVPEGASEEQVKALAKELKEELEKLLKVKDKDGKEKEVKIKKIKITVIVLPKEESAGGSA [r15_717_TrROS_Hall] | 2.37 ± 0.087 kcal/mol | 2.56 ± 0.064 kcal/mol | 2.42 ± 0.2 kcal/mol |
| SAGPKKKVEIDVHIMIPFKSWEDRELMLYYARKFAPYIARELAKQNGLPPGVDEVKVDVNIMIIPPGQMSAG [r5_436_TrROS] | 2.84 ± 0.12 kcal/mol | 3.87 ± 0.04 kcal/mol | 3.34 ± 0.12 kcal/mol |
| SAGGKIEELAKELAKKLNIEKVEVEEKDGKLVVKLVVKDKKTNKYYRITIEVDDDGNIKISIEPLPPSAGGS [r16_433_TrROS_Hall] | 3.91 ± 0.2 kcal/mol | 5.17 ± 0.12 kcal/mol | 5.12 ± 0.2 kcal/mol |
| SAGGSAGPKVEVELFPVPPFAPGSEFVLLVKTEDGDVILQRFRVKLEGNEPKIEPLGSIVLKPDELSAGGSA [r15_636_TrMRF] | 1.08 ± 0.036 kcal/mol | 2.09 ± 0.062 kcal/mol | 1.78 ± 0.1 kcal/mol |
| SAGITILFNSAEDAENFAEELAEDYPNMNVTIKIHDPEHGEPVEIPVKIPPPPPKPKRDPDNGNKKYEGSAG [r5_870_TrROS] | -0.132 ± 0.043 kcal/mol | 0.506 ± 0.053 kcal/mol | 0.286 ± 0.13 kcal/mol |
| SAGNVIVVVNPETGEVVVVSFDELVRIVAVSSKTLVPEVRDVPRDKVLDFIKEAFPGPVEILEIKPAPVSAG [r5_519_TrMRF] | 1.02 ± 0.043 kcal/mol | 1.22 ± 0.05 kcal/mol | 1.19 ± 0.053 kcal/mol |
| SAGGSAGGSAGGGMTITTTSSVSESDGGLTLSTTTTAFDPVTGTWTPLTTTTTTLPPTTSAGGSAGGSAGGS [r10_51_JUSTAS] | 1.65 ± 0.065 kcal/mol | 0.778 ± 0.041 kcal/mol | 1.24 ± 0.053 kcal/mol |
| SAGGSNFKPLEAEIYRNPDGKDVVQIMITFPDPNGKPFTVNIWIYPDGKIKISVYYNGKKEEIEIPSAGGSA [r2_182_TrROS] | 1.95 ± 0.13 kcal/mol | 3.57 ± 0.12 kcal/mol | 2.96 ± 0.18 kcal/mol |
| SAGGSAGGSAGGLSLKVKNKKTGKWYDIESIEVKKDPSSGKPVIKIKTSGPKEVEKELVSAGGSAGGSAGGS [r10_663_TrMRF] | -0.894 ± 0.34 kcal/mol | -0.178 ± 0.22 kcal/mol | -0.34 ± 0.4 kcal/mol |
| SAGGKTVVIEAESLEEALAAIEALPPDVKKVVIFNKETGVLVEVTVDPKTGEIKEIKVYKIDPEKGKLSAGG [r13_945_TrROS_Hall] | 1.22 ± 0.09 kcal/mol | 2.861 ± 0.026 kcal/mol | 2.54 ± 0.12 kcal/mol |
| SAGGSAEKEVYLVPFESEEKREKLREALLAEPGIEEVKETEDGVLLVTVPKGLSDKVEKAIKEAGISAGGSA [r15_834_TrMRF] | 1.21 ± 0.047 kcal/mol | 1.08 ± 0.025 kcal/mol | 1.17 ± 0.086 kcal/mol |
| SAGGGIVIPVPAETARELLEKLAPDGADVTVESLGSLGGGEVYRATFTDPVFGNTVDIEVLVGPEGGSAGGS [r16_486_TrMRF] | 0.392 ± 0.028 kcal/mol | 0.301 ± 0.13 kcal/mol | 0.437 ± 0.096 kcal/mol |
| SAGGSAGGSLTVSFPGITLTLETVPGTGKIIATVTFPGGEVRTISSDVPLSELPPVVREALELLSAGGSAGG [r6_749_JUSTAS] | 2.72 ± 0.087 kcal/mol | 2.67 ± 0.051 kcal/mol | 2.74 ± 0.072 kcal/mol |

Reference: the supplement of paper PMC12764529
